Positions count from the first letter of the chain named.

In the first data set the target is T1, OmpR-His6 (Yersinia enterocolitica Ye9) (UniProt P74982).
T1 sequence: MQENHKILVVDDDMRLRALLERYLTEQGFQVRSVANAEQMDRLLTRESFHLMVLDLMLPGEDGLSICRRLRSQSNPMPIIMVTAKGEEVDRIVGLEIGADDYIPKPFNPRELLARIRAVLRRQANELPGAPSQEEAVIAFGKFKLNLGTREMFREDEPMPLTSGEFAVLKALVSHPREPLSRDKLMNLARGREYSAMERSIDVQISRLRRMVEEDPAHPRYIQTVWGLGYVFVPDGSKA
In words: EMSA. Conditions: 50 mM Tris-HCl pH 8.0, 100 mM KCl, 1 mM EDTA, 1 mM DTT, 20 mM MgCl2, 12% glycerol, 100 ug/mL BSA, 0.1% Triton X-100; 22 C, 15 min; 0.05 or 0.3 pmol DNA in ….
For “CCCCCTTATTCCAAATGGTTTTTATTTCTCCTTTCTGTTTTTGCAGCAAGAAATAATTCGTCTGTTTGCGACAAAATTGATTTACTTGGGAAATGTAATCATTAAGATTAGCGTTTCTAAAAAATTACAATCAGACACAATTCCTTTCGCAATAGGCCCAAAATGTTAACGTTTTCCCGTTTGTCTCTG (double strand) [PfecA]”, the binding entry was “binds”.
For “GGTGGTAAAACAAGCGCAAATAGAAATCAGACTCATTAATTTTAAAAATGAAATCGTAATGAATATTTACTTTTGAGTCTTTAACCTGAGTTGAATATGAAAACGATTCTTACTATTATTATTTTAATCATTATTCATTAGTGGTGGAATTTCTCTGAACTCTGGTTTGCTAATGCGTTATAACGAGAGGCTTACATGCATCTGATCCCACAGCGCTCCTACAAAAT (double strand) [PfeoA]”, the binding result is “binds more weakly”.
“CAATCTATTCACGGGGCAACAAAAACGAACAAGATTGATAATTATTTTCATTATCAATTCATCCGGCTAATTGTTACATTTGCAATCAGAAAAAAGGTTTGTGTAAACAGCAAAACTCTTTGCTATAAAGTCAATGTTGTTACTACATCAATACCAGTGAAGGAGTCATTATGCCCGCGGTGAAGAAAAATAAGTTGCGCAATATTTCCCCATCATCCAAACCGATTTATCGCGACCAAATTATGCA (double strand) [PfepA]”: the binding result is “binds”.

For a further data set, the target named is T2, OmpR-His6 (Yersinia enterocolitica Ye9) (UniProt P74982).
T2 sequence: T1 sequence with A136T
In words: EMSA. Conditions: 50 mM Tris-HCl pH 8.0, 100 mM KCl, 1 mM EDTA, 1 mM DTT, 20 mM MgCl2, 12% glycerol, 100 ug/mL BSA, 0.1% Triton X-100; 22 C, 15 min; 0.05 or 0.3 pmol DNA in ….
As for “TGACAAATGAGCGCGTTGAAGCTTGGGTAAAACAGATCAGCGAAGAACTGAATCTGGCCGAAATTACCGGTTAATTTGTCATGTCGGAAACGCGAGGATGAAATTTAATATTGCCACGCGTTTCCGTTGCTTCTATCCCTCTGGTTATACTCTGTTAAGCCACCCACAGATCCGCACTTTCATCCGTGCAAAATGAAAATAAACTGCTACAAATTTGTAACCTTATACTTTGCAGTCAT (double strand) [F12]”, the binding entry was “binds”.
Still for that read-out and setting: under “GCATGATTAATCGGGCAAAGTGTGCAATTATATCTTTGTTAACAACCACGGTTTTCATTTGGGGCTAGCAGTTCTATAATGAGACGCAATTGAGAATATTGCGCCACGGATGTCATAGGCTGAACAGCC (double strand) [F0]” stands “no binding”; under “CGTTGCTTCTATCCCTCTGGTTATACTCTGTTAAGCCACCCACAGATCCGCACTTTCATCCGTGCAAAATGAAAATAAACTGCTACAAATTTGTAACCTTATACTTTGCAGTCAT (double strand) [F2]”, “binds”.
In the case of “GCAGTCATATACTTAAATTATGCAACAATCCCATTCATCAATACATTGCATGATTAATCGGGCAAAGTGTGCAATTATATCTTTGTTAACAACCACGGTTTTCATTTGGGGCTAGCAGTTCTATAATGAGACGCAA (double strand) [F3]”, the binding result is given as “binds”.
The same measure, in the same setting: next, “CGTTGCTTCTATCCCTCTGGTTATACTCTGTTAAGCCACCCACAGATCCGCACTTTCATCCGTGCAAAATGAAAATAAACTGCTACAAATTTGTAACCTTATACTTTGCAGTCATATACTTAAATTATGCAACAATCCCATTCATCAATACATTGCATGATTAATCGGGCAAAGTGTGCAATTATATCTTTGTTAACAACCACGGTTTTCATTTGGGGCTAGCAGTTCTATAATGAGACGCAA (double strand) [F23]”: “binds”; “TCATTTTGCACGGATGAAAGTGCGGATCTGTGGGTGGCTTAACAGAGTATAACCAGAGGGATAGAAGCAACGGAAACGCGTGGCAATATTAAATTTCATCCTCGCGTTTCCGACATGACAAATTAACCGGTAATTTCGGCCAGATTCAGTTCT (double strand) [F1]”: “binds more weakly”; “CAATACATTGCATGATTAATCGGGCAAAGTGTGCAATTATATCTTTGTTAACAACCACGGTTTTCATTTGGGGCTAGCAGTTCTATAATGAGACGCAATTGAGAATATTGCGCCACGGATGTCATAGGCTGAACAGCCTTAATTTGAATCGATAGTAACAGGACTGAATCCGCATG (double strand) [F4]”: “binds more weakly”.
Regarding “GCAGTCATATACTTAAATTATGCAACAATCCCATTCATCAATACATTGCATGATTAATCGGGCAAAGTGTGCAATTATATCTTTGTTAACAACCACGGTTTTCATTTGGGGCTAGCAGTTCTATAATGAGACGCAATTGAGAATATTGCGCCACGGATGTCATAGGCTGAACAGCCTTAATTTGAATCGATAGTAACAGGACTGAATCCGCATG (double strand) [F34]”, the binding entry is “binds”.

The values are drawn from article PMC7867234.
